Laboratory results as given in patent US20230312722A1 (NONA BIOSCIENCES SUZHOU, published 2023).
Residue numbers refer to the chain shown, from its start. In names and notes the source's numbering stands.

What was measured:
[1] = target: T1, human B7H4 on the cell surface (human, UniProt Q7Z7D3 25-282); experiment: FACS on MDA-MB-468 cells; in the drawn table the number stands under the head 'Maximum MFI' (the two heads are interchanged); the head says nM, the axis of the curve µg/mL
T1 construct: whole, on cells; also called CHOK1/hu B7H4; B7H4 on SK-BR-3
T1 sequence (looked up): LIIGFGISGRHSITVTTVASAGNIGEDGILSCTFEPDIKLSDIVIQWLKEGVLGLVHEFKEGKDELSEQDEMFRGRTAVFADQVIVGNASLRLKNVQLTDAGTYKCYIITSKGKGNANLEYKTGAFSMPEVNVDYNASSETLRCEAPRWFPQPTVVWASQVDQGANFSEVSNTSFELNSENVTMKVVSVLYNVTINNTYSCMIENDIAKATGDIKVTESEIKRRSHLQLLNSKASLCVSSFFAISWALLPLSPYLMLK

[2] = target: T2, human B7-H4 (recombinant protein of the BLI affinity assay, Example 7.2) (human, UniProt Q7Z7D3 29-258, limits assumed); experiment: BLI (Octet Red 96e), antibody captured on AHC sensor, human B7-H4 in solution, 1:1 global fit
T2 construct: also called human B7H4 protein
T2 sequence (looked up): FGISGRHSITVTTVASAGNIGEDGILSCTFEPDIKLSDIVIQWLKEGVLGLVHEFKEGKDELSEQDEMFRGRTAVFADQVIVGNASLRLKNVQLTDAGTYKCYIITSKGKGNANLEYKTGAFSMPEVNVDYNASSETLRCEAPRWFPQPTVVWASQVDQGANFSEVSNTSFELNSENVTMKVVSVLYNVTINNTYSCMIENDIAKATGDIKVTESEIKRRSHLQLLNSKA
Experimental: When the affinity of the antigen for the antibody was determined, the rotation speed of the sensor was set at 1000 rpm/min. The AHC sensors (Fortebio, #18-5060) placed in a row were equilibrated for 10 minutes in a test buffer before the AHC sensors were used to capture the B7-H4 antibodies at a capture height of 0.7 nm; the AHC sensors, after equilibrated in the buffer for 120 s, bound to 2-fold serially diluted human B7-H4 (concentrations were 50 nM-3.125 nM and 0 nM) for 180 s, followed by dissociation for 300 s. Finally, the AHC sensor was immersed in a 10 mM glycine-hydrochloric acid solution at pH 1.5 for regeneration to elute the proteins bound to the sensor.
When data analysis was performed using Octet Data Analysis software (Fortebio, version 11.0), 0 nM was taken as a reference well, and reference subtraction was performed; the “1:1 Global fitting” method was selected to fit the data, and the kinetics parameters of the binding of antigens to antigen-binding proteins were calculated, with kₒₙ (1/Ms) values, kdis (1/s) values and KD(M) values obtained (see Table 7-2).

[3] = target: T1, human B7H4 on the cell surface; experiment: FACS on MDA-MB-468 cells; in the drawn table the number stands under the head 'EC50 (nM)' (the two heads are interchanged)
[4] = target: T1, human B7H4 on the cell surface; experiment: FACS, tumor cells (table head: SK-BR-3)
Experimental: (§1) This example is intended to investigate the in vitro binding activity of anti-human B7H4 H2L2 monoclonal antibody to human/cynomolgus monkey/mouse B7H4. Antibody binding experiments at the cellular level were performed using CHOK1 cell line overexpressing human B7H4 (CHOK1/hu B7H4, Harbour BioMed), CHOK1 cell line overexpressing cynomolgus monkey B7H4 (CHOK1/cyno B7H4, Harbour BioMed), CHOK1 cell line overexpressing mouse B7H4 (CHOK1/m B7H4, Harbour BioMed) and SK-BR-3 cell line (ATCC® HTB-30) highly expressing human B7H4. Briefly, CHOK1/hu B7H4 cells, CHOK1/cyno B7H4 cells, CHOK1/m B7H4 cells or SK-BR-3 cells were digested and resuspended with PBS containing 2% BSA. The cell density was adjusted to 1×10⁶ cells/mL. The cells were seeded in a 96-well V-bottom plate (Corning, #3894) at 100 μL/well, followed by the addition of test antibodies diluted in a 3-fold concentration gradient of 2 times the final concentration, each at 100 μL/well. The cells were incubated at 4° C. for 2 h away from light. Thereafter, the cells in each well were rinsed twice with 100 μL of pre-cooled PBS containing 2% BSA, and centrifuged at 500 g at 4° C. for 5 min, and then the supernatant was discarded. […] Finally, the cells in each well were resuspended with 200 μL of pre-cooled PBS containing 2% BSA, and the fluorescence signal values were read using an ACEA Novocyte3000 flow cytometer.

[5] = target: T1, human B7H4 on the cell surface; experiment: FACS on MDA-MB-468 cells (head of the figure); the same number stands in Table 2-3 of the text under the head SK-BR-3
[6] = target: T1, human B7H4 on the cell surface; experiment: FACS on MDA-MB-468 cells
[7] = target: T3, mouse B7H4 on the cell surface (mouse, UniProt Q7TSP5 25-257); experiment: FACS, CHOK1/m B7H4 cells (FIG. 5)
T3 construct: whole, on cells; also called CHOK1/m B7H4
T3 sequence (looked up): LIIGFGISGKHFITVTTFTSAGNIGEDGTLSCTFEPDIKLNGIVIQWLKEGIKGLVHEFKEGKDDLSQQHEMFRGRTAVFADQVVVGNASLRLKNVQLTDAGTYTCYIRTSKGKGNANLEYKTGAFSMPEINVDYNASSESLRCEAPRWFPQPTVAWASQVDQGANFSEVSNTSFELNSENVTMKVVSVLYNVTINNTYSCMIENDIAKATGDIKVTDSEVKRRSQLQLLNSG
Experimental: as §1

[8] = target: T1, human B7H4 on the cell surface; experiment: FACS, CHOK1/hu B7H4 cells
Experimental: (§2) This example is intended to investigate the in vitro binding activity of anti-human B7H4 H2L2 monoclonal antibody to human/cynomolgus monkey/mouse B7H4. Antibody binding experiments at the cellular level were performed using CHOK1 cell line overexpressing human B7H4 (CHOK1/hu B7H4, Harbour BioMed), CHOK1 cell line overexpressing cynomolgus monkey B7H4 (CHOK1/cyno B7H4, Harbour BioMed), CHOK1 cell line overexpressing mouse B7H4 (CHOK1/m B7H4, Harbour BioMed) and SK-BR-3 cell line (ATCC® HTB-30) highly expressing human B7H4. Briefly, CHOK1/hu B7H4 cells, CHOK1/cyno B7H4 cells, CHOK1/m B7H4 cells or SK-BR-3 cells were digested and resuspended with PBS containing 2% BSA. The cell density was adjusted to 1×10⁶ cells/mL. The cells were seeded in a 96-well V-bottom plate (Corning, #3894) at 100 μL/well, followed by the addition of test antibodies diluted in a 3-fold concentration gradient of 2 times the final concentration, each at 100 μL/well. The cells were incubated at 4° C. for 2 h away from light. Thereafter, the cells in each well were rinsed twice with 100 μL of pre-cooled PBS containing 2% BSA, and centrifuged at 500 g at 4° C. for 5 min, and then the supernatant was discarded. Then 100 μL of a fluorescent secondary antibody (Alexa Fluor 488-conjugated AffiniPure Goat Anti-Human IgG, Fcγ Fragment Specific, Jackson, #109-545-098, 1:500 diluted) was added to each well. The plate was incubated away from light at 4° C. for 1 h. The cells in each well were washed twice with 100 μL of pre-cooled PBS containing 2% BSA, and centrifuged at 500 g at 4° C. for 5 minutes, and then the supernatant was discarded. Finally, the cells in each well were resuspended with 200 μL of pre-cooled PBS containing 2% BSA, and the fluorescence signal values were read using an ACEA Novocyte3000 flow cytometer.

[9] = target: T1, human B7H4 on the cell surface; experiment: FACS, SK-BR-3 cells
Experimental: as §2

[10] = target: T4, cynomolgus monkey B7H4 on the cell surface (cynomolgus monkey, UniProt A0A2K5U6P5 25-282); experiment: FACS, CHOK1/cyno B7H4 cells
T4 construct: whole, on cells; also called CHOK1/cyno B7H4
T4 sequence: T1 sequence (looked up) with L53I, F242L, S252A
Experimental: as §2

B1: PR003369 (antibody, human IgG1, kappa, V domains shown)
VH: QVQLVESGGGVVQPGRSLRLSCAASGFTFRSFGMHWVRQAPGKGLEWVAVISYDASNEYYADSVKGRFIISRDNSKDTLYLQMNSLRAGDTAVYYCAKGGALRWYFAYWGQGTLVTVSS
VL: EIVMTQSPATLSVSPGERATLSCRASQSISSNLGWYQQKPGQAPRLLIYGASTRATGIPARFSGSGSGTEFTLTISSLQSEDFAVYYCQQYRSWPPLTFGGGTKVEIKR
notes: L: N92R; Fc S239D, I332E), human IgG1
B1 showed an EC50 [1] of 0.0508 nM, a Kd [2] of 1.39 nM and a koff [2] of 0.000394 s⁻¹. The kon [2] was 283000 M⁻¹ s⁻¹, the “Maximum MFI” value [3] was 204000 and the EC50 [4] was 0.434 nM. For the same binder, the EC50 [5] was 0.434 nM and the “EC50 (read off the curve)” value [6] was roughly 0.05 mg/L.

B2: PR002038 (antibody, human IgG1, kappa, V domains shown)
VH: QVQLVQSGAEVKKPGSSMRVSCKASEDTFSSYAISWVRQAPGQGLEWMGGTAPIFGTTNYAQKFQGRVTITADKSTSTAYMELSSLRSEDTAVYYCARGGPYFDYWGQGTLVTVSS
VL: DIQLTQSPATLSVSPGERATLSCRASQSVSSNLAWYQQKPGQAPRLLIYGDYIRATGIPARFSGSGSGTEFTLTISSLQSEDIATYYCQQYVDLPITFGQGTRLEIKR
notes: Initial antibody, human IgG1; also called 1025_B-2A1
With B2 the binding result [7] was “no binding”, the EC50 [8] was 20 nM and the “Maximum MFI” value [8] was 1.15e+06 MFI. The EC50 [9] was 85.6 nM, the “Maximum MFI” value [9] was 82800 MFI and the EC50 [10] was 24.8 nM. For the same binder, the “Maximum MFI” value [10] was 677000 MFI.
